# Measured values taken from the RNAGym collection of RNA variant scans (doi:10.1073/pnas.2313332121).
# B1: TPR t1 (parent)
# chain: GACCAAUCUGCCCUCAGAGCUCGAGAACAUCUUCGGAUGCAGAGGAGGCAGGCUUCGGUGGCGCGAUAGCGCCAACGUCCUCAACCUCCAAUGCAUCCCACCACAUGAUGAUGCCUGAAGAGCCUUGGUUUUUUG
# Variants of: B1
# Test: polymerase ribozyme fitness, log enrichment relative to wild type (log ratio); higher = more active; in vitro selection for triplet polymerase activity
# Method in brief: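 Mutant libraries of each subunit of a heterodimeric triplet polymerase ribozyme were built by PCR and transcribed. Each library went through one round of in vitro selection in triplicate: annealing with biotinylated primer, partner subunit and triplets, frozen incubation at −7 °C, gel excision of extended constructs, streptavidin-bead capture and RT-PCR. Input and output libraries were Illumina-sequenced; only genotypes with ≥10 input reads and ≥1 read per output were kept. Fitness is log2(genotype enrichment/wild-type enrichment), using inverse-variance-weighted replicate averages.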
row,Variant,polymerase ribozyme fitness (log ratio)
1,GACCAAUCUGCACUCAGAGCUAGAGAACAUCUUCGGAUGCAGAGGAGGCAGGCUUCGGAGCCGCGAUAGCGCCAACGUCCUCAACCUCCAAUGCAUCCCACCACAUGAUGAUGCCUGAAGAGCCUUGGUUUUUUG,-5.61
2,GACCAAUCUGCAGUCAGAGCUCGAGAACAUCUUCGGAUGCAGAGCAGGCAGGCUUCGGUGGCACGAUAGCGCCAACGUCCUCAACCUCCAAUGCAUCCCACCACAUGAUGAUGCCUGAUGAGCAUUGGUUUAUUG,0.867
3,GACCAAUCUGCACUCAGAGCUCGAGAACAUCUUCGGAUGCAGAGGAGGCAGGCUUCGGUGGCGCGGUAUCUCCAACGUCCUCAACCUCCAAUGCAUCCCACCACAUGAUGAUGCCUGAAGAGCCUUGGUUUUUUG,-2.65
4,GACCAAUCUGCAUUCAGAGCUCGAGAACAUCUUCGGAUGCAGAGGAGGCAGGCAUCGGUGGCGCGAUAGCGUCAACGUCCUCAACCUCAAAUGCAUCCCACCACAUGAUGAUGCCUGAAGAGCCUUGGUUUUUUG,-1.99
5,GACCAAUCUGCACUCAGAGAUCGAGAACAUCUUCGGAUGCAGAGGAGGCAGGCUUCGGUGGCACGAUAGCGCCAACGUCCUCAACCUCCAAUGCAUCCCACCACAUGAUGAUGCCUGAAGAGCCUUGGUUUUUUG,-3.86
6,GACCAAUCUGCAGUCAGAGCUCGAGAACAUCUUCGGAUGCAGAGCAGGCAGGCUUCGGUGGCGCGAUAGCGCCAACGUCCUCAACCUCCAAUGCAUCCCACCACAUGAUGAUGCCUGAUGAGCAUUGGUUUAUUG,0.6
7,GACCAAUCUGCACUGAGAGCUCGAGAACAUCUUCGGAUGCAGAGGAGGCAGGUUUCGGUGGCGCGAUAGCGCCAACGUCCUCAACCUUCAAUGCAUCCCACCACAUGAUGAAUCCUGAAGAGACUUGGCUUUUUG,-3.91
8,GACCAAUCUGCACUCAGAGCUGGAGAACAUCUUCGUAUGCAGAGGAGGCAGGCUUCGGUGGCGCGAUAGCGCCAACGUCCUCAACCUCCAAUGCAUCCCACCACAUGAUGAUGCCCGAAUAGCCUUGGUUUUUUG,-3.27
9,GACCAAUCUGCACUCAGAGCUCGAGAACAUUUUCGGAUGCAGAGGAGGCAGGCUUCGGUGGCGCGAUAGCGCCAACGUCCUCCACCUCCAAUGCAUCCCACCACAUGAUGAUGCCUGAAGAGCCUUGGUUUUUUG,-5.06
10,GACCAAUCUGCAAUCAGAGCUCGAGAACAUCUUCGGAUGCAGAGGAGGCAGGCUUCGGUGGUGCGAUAGCGCCAACGGCCUCAACCUCCAAUGCAUCCCACCACAUGAUGAUGCGUGAAGAGCGUUUGUUUUUUG,-6.43
11,GACCAAUCUGCACUCAGAGCUCGAGAACAUCUUCGGAUGCAGAGGAGGCAGGCUUCGGUGGCGCGAUAGCGCCAGCGUCCUCAACCUCCAAUGCAUCCCACCACAUGAUGAUGCCUGAAGAGCCUUGGUUUUUUG,-0.0398
12,GACCAAUCUGCACUCAGAGCUCGAGAACAUUUUCGGAUGCAGAGGAGGCAGGCUUCGGUGGCGCGAUAGCGCCAACGUCCUCAACCUCCAAUGCAUCCCACCACAUGAUGAUGCCUGAAGAGCCUUGGUUUUUUG,-4.6
13,GACCAAUCUGCACUCAGAGCUCGAGAACAUAUUCGGAUGCAGAGGAGGCAGGCUUCGGUGGCGCGAUAGCGCCAACGUCCUCAACCUCCAAUGCAUCCCACCACAUGAUGAUGCCUGAAGAGCCUUGGUUUUUUG,-6.73
14,GACCAAUCUGCACUGAGAGCUCGAGAACAUCUUCGGAUGCAGAGGAGGCAGGCUUGGGUGGCGCGAUAGCGCCAACGUCCUCAACCUCCAAUGCAUCCCACCACAUGAUGAUGCCUGAAGAGCCUUGGUUUUUUG,-2.69
15,GACCAAUCUGCACUCAGAGCUCGAGAAGAUCUUCGGAUGCAGAAGAGGCAGGCUUCGGUGGCGCGAUAGCGCCAACGUCCUCAACCUCCAAUGCAUCCCACCACAUGAUGAUGCCUGAAGAGCCUUGGUUUUUUG,-4.91
16,GACCAAUCUGCACUAAGAGCUCGAGAACAUCUUCGGAUGCAGAGGAUGCAGGCUUCGGUGGUGCGAUAGCGCCAACGCCCUCUACCUCCAAUGCAUCCCACCACAUGAUGAUGCCUGAACAGCCUUGGUUUUAUG,-2.07
17,GACCAAUCUGCACUUAGAGCUCGAGAACAUCUUCGGAUGCAGAGGAGGCAGUCUUCGGUGGAGCGAUAGCGCCAACGUCCUCAACUUCCAAUGCAUCCCACCACAUGAUGAUGCCUCAAGAGCCUUGGUUUUUUG,-5.92
18,GACCAAUCUGCACUCAGAGCUCGAGAACAUCUUCGGAUGCAGAGGAGGCAGGCUUCGGUGGCGCGAUAGCGCCAGCGUCCUCAACCUCCAAUGCAUCCCACCACAUGAUGAUGACUGAAGAGCCUUGGUUUUUUG,-3.82
19,GACCAAUCUGCACUCAGAGCUCGAGAAUAUCUUCGGAUGUUGAGGAGGCAGGCUUCGGUGGCGCGAUAGCGCCAACGUCCUCAACCUCCAAUGCAUCCCACCACAUGAUGAUGCCUGAAGAGCCUUGGUUUUUUG,-4
20,GACCAAUCUGCAUUCAGAGCUCGAGAACAUCUUCGGAUGCAGAGGAGGCAGGCUUCGGUGGCGCGAUAGCACCAACGUCCUCAACCUCCAAUACAUCCCACCACAUGAUGAUGCCUGAAGAGCCUUGGUUUUUUG,-0.733
21,GACCAAUCUGCAAUCAGAGCUCGAGAACAUCUUCGGAUGCAGAGGAGGCAGGCUUCGGUGGCGCGAUAGCGCCAACGUCCUCAACCUCCAAUGCAUCCCACCACAUGAUGAUGCCUGAAGAGCCUUGGUUUUUUG,-1.97

row,Variant,polymerase ribozyme fitness (log ratio)
1,GACCAAUCUGCAGUCAGAGCUCGAGAACAUCUUCGGAUGCAGAGGAGGCAGGCUUCGGUGGCGCGAUAGCGCCAACGUCCUCAACCUCCAAUGCAUCCCACCACAUGAUGAUGCCUGAAGAGCCUUGGUUUUUUG,-0.617
2,GACCAAUCUGCACUCAGAGCUUGAGAACAUCUUCGGAUGCAGAGUAGGUAGGCUUCGGUGGCGCGAUCGCGCCAACGUCCUCAACCUCCAAUGCAUCCCACCACAUGAUGAUGCCUGAAUAGCCUUGGUUUUUUG,-7.43
3,GACCAAUCUGCACUCAGAGCUCGAGAACAUCUUCGGAUGCAGAGGAGGCAGGCUUCGGUGGCGCGAUAGCGCCAACGUCCUCAUCCUCCAAUGCAUCCCACCACAUGAUAAUGUCUGAAGAGCCUUGGUUUUUUG,-5.31
4,GACCAAUCUGCACUCAGAGCUCGAGAAAAUCUUCGGAUCCAGAGGAGGCAGGCUUCGGUGGCGCGAUAGCGCCAACGUCCUCAACCUCCAAUGCAUCCCACCACAUGAUGCUGCCUGAAGAACCUUGGUUUUUUG,-5.3
5,GACCAAUCUGCACUCAGAGCUCGAGAACAUCUUCGGAUGCAGAGGAGGCAGGCUUCGGUGGCGCGAUAGCGCCAACGUCCUCAACCUCCAAUGCAUCCCACCACAUGAUGAUGCCUGAAGGGCCUUGGUUUUUUG,1.96
6,GACCAAUCUGCACUCAGAGCUCGAGAACAUCUUCGGAUGCAGAGGAGGCAGGCUUCGGUGGCGCGAUAGCGCCAACGUCCUCAACCUCCAGUGCAUCCCACCACAUGAUGAAGCCUGAAGAGCCUUCGUUUUUUG,-1.8
7,GACCAAUCUGCACUCAGAGCUAGAGAACAUCUUCGGAUGCAGAGGUGGCAGGCUUCGGUGGCGCGAUAGCGCCAACGUUCUCAACCUCCAAUGCAUCCCACCACAUGAUGAUGCCUGAAGAGCCUUGGUUUUUUG,-6.1
8,GACCAAUCUGCACUCAGAGUUCGAGAACAUCUUCGGAUGCAGAGGAGGCAGGCUUCGGUGGCGCGAUAGCGCCAACGUCCUCAACCUCCAAUGCAUCCCACCACAUGAUGAUGUCUGAAGAGCCUUGGUUUUUUG,-0.454
9,GACCAAUCUGCACUCAGAGCUCGAGAACAUCUUCGGAUGCAGAGGAGGCAGGCUUCGGUGGCGCGAUAGCGCCAACGUCCUCAACCUCCAAUGCAUCCCACCACAUGAUGCUGCCUGAAGAGCCUUGGUUUUUUG,-0.641
10,GACCAAUCUGCACUCAGAGCUCGAGAACAUCUUCGGAUGCAGAGGAGGCAGGCUUCGGUGGCGCGAUAGCGCCAACGUCCUCAACCUCCAAUGCAUCCCACCACAUGAUGUUGCCUGAAGAGCCUUGGUUUUUUG,-2.77
11,GACCAAUCUGCACUUAGAGCUCGAGAACAUCUUCGGAUGCAGAGGAGGCAGGCUUCGGUGGCGCGAUAGUGCCAACGUCCUCAACUUCCAAUGCAUCCCACCACAUGAUGAUGCCUGAAGAGCCUUGGUUUUUUG,-2.81
12,GACCAAUCUGCACUAAGAGCUCGAGAACAUCUUCGGAUGCAGAGGAGGCAGGCUUCGGUGGCGCGAUAGCGCUAACGUCCUUAACCUCCAAUGCAUCCCACCACAUGAUGAUGCCUGAAGAGCCUUGGUUUUUUG,-3.66
13,GACCAAUCUGCACUCAGAGCUUGAGAACAUCUUCGGAUGCAGAGGAGGCAGGCUUCGGUGGCGCGAUAGCGCCAACGUCCUCAACCUCCAAUGCAACCCACCACAUGAUGAUGCCUGAAGAGCCUUGGUUUUUUG,-4.9
14,GACCAAUCUGCAUUCAGAGCUCGAGAACAUCUUCGGAUUCAGAGGAGGCAGGCUUCGGUGGCGCGAUAGCGCCAACGUCCUCAACCUCCAAUGCAUCCCACCACAUGAUGAUGCCUGAAGAGCCUUGGUUUUUUG,-0.844
15,GACCAAUCUGCACUUAGAGCUCGAGAACAUCUUCGGAUGCAGAGGAGGCAGGCUUCGGUGGCGCGAUAGCGCAAACGUUCUCAACAUCCAAUGCAUCCCACCACAUGAUGAUGCUUGAAGAGCCUUGGUUUUUUG,-3.16
16,GACCAAUCUGCACUCAGAGAUCGAGAACAUCUUCGGAUGCAGAGGAGGCAGGCUUCGGUGGCGCGAUAGCGCCAACGUCCUCAACCUCCAAUGCAUCCCACCACAUGAUGAUGCCUGAAGAGCCUUGGUUUUUUG,-2.37
17,GACCAAUCUGCACUCAGAGUUCGAGAACAUCUUCGGAUGCAGAGGAGGCAGGCUUCGGUGGCGCGAUAGCGCCAACGUCCUCAACCUCCAAUGCAUCCCACCACAUGAUGAUGCCUGAAGAGCCUUGGUUUUUUG,-0.43
18,GACCAAUCUGCACUCAGAGCUCGAGAACAUCUUCGGAUGCAGAGGAGGCAGGCUUCGGUGGCGCGAUAGCGCCAACGUCCUCUACCUCCAAUGCAUCCCACCACAGGAUGAUGCCUGAAGAGCCUUGGUUUUUUG,-2.32
19,GACCAAUCUGCAUUCAGAGCUCGAGAACAUCUUCGGAUGCAGAGGAGGCAGGCUUCGGUGGCGCGAUAGCGCCAACGUCCUCAACCUCCAAUGCUUCCCUCCACAUGAUAAUGCCUGAAGAGCCUUGGUUUUUUG,-2.79
20,GACCAAUCUGCACUAAGAGCUCGAGAACAUCUUCGGAUGCAGAGGAGGCAGGCUUCGGUGGCGCGAUAGCGCCAACGUCCUCAACCUCCAAUGCAUCCCACCACAUGAUGAUGCCUGAAGAGCCUUGGUUUAUUG,-3.86
21,GACCAAUCUGCACUCAGAGCUCGAGAACAUCUUCGGAUGCAGAGGAGGCAGGCUUCGGUGGCGCGAUAGCGCCAACGUCCUCAACCUCCACUGCAUCCCACCACAAGAUGAUGCCUUAAGAGCCUUGGUUUUUUG,-5.61
